From patent US11015206B2, “Compositions and methods comprising sequences having hydroxyphenylpyruvate dioxygenase (HPPD) activity” (PIONEER HI-BRED INTERNATIONAL, INC., priority 2014, dated 2021)

How the values were obtained:
Type in all cases: biochemical, Z. mays
[1] = test system: 4-hydroxyphenylpyruvate dioxygenase (HPPD); assay: Insensitivity parameter (ON × OFF) and trait fitness (ON × OFF × kcat/KM or × kcat); parameters: key to ON × OFF / Insensitivity, mesotrione, ON × OFF / Insensitivity, tembotrione, ON × OFF / Insensitivity, topramezone, ON × OFF / Insensitivity, sulcotrione, ON × OFF / Insensitivity, isoxaflutole (DKN), ON × OFF: insensitivity = ON rate ratio × OFF rate ratio (surrogate for KD)
How it was run: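 Calculated, not measured directly: ON rate ratio × OFF rate ratio gives an insensitivity parameter serving as a KD surrogate.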

[2] = test system: 4-hydroxyphenylpyruvate dioxygenase (HPPD); assay: ON rate ratio: HPPD reaction rate with vs without inhibitor in the 70 to 90 second interval; settings: Table 7; tembotrione; combinatorial variants
How it was run: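 Time courses of HPPD reactions, 60 or 120 nM enzyme with 100 μM HPP substrate, run with and without 4 μM inhibitor (e.g. mesotrione, tembotrione). Value is the rate with inhibitor over rate without, taken over 70–90 s; higher ratio reflects slower kON.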

[3] = test system: 4-hydroxyphenylpyruvate dioxygenase (HPPD); assay: Estimate of kcat from initial rate at saturating hydroxyphenylpyruvate without inhibitor (ON rate ratio assay)
How it was run: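 Reactions used 60 or 120 nM HPPD and saturating 100 μM hydroxyphenylpyruvate without inhibitor. kcat was estimated from the initial rate at the known enzyme concentration.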

[4] = test system: 4-hydroxyphenylpyruvate dioxygenase (HPPD); assay: OFF rate ratio: release of inhibitor from pre-formed enzyme-inhibitor complex; settings: Table 7; tembotrione; combinatorial variants
How it was run: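 HPPD (7.2 μM) pre-incubated 1 h at RT with inhibitor (8 μM), then diluted into 25 mM Hepes pH 7, 2 mM ascorbate, 10 μM FeSO4, 100 μM HPP, 50 nM HGD; A320 followed 12 min. Ratio = steady-state rate with inhibitor over initial rate of inhibitor-free enzyme.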

[5] = Table 7, tembotrione, combinatorial variants
[6] = Table 7, combinatorial variants

ON × OFF ([1]; Megatable 3, shuffled variants) | ON × OFF [1, 5] | ON rate ratio [2] | OFF rate ratio [4] | Molecule | ON × OFF × kcat ([1]; Megatable 3, shuffled variants) | ON × OFF × kcat [1, 5] | kcat ([3]; Megatable 3, shuffled variants) [s⁻¹] | kcat [3, 6] [s⁻¹]
0.225 | 0.225 | 0.739 | 0.305 | P056028-F-06 (protein, Zea mays variant form created by artificial means.) MGPTPTATAAGAAVAAASAAEQAAFRLVGHRNFVRFNPRSDRFQTLAFHHVELWCADAASAAGRFSFALGVPLAARSDLSTGNSAHASLLLRSGSLSLLFTAPYAHGADAATAALPSFSAAAARRFAADHGLAVRAVALRVADAEDAFRASVAAGARPAFGPVDLGRGFRLAEVELYGDVVLRYVSYPDGGAGEPFLPGFEGVASSGAADLGLNRFDHIVGNVPELAPAAAYMAGFTGFHEFAEFTTEDVGTTESGLNSMALANNSENVLLPLNEPVHGTKRRSQIQTFLDHHGGPGVQHIALASDDVLRTLREMRARSAMGGFEFLPPPLSDYYDGVRKCAGDVLTEAQINECQKLGVMVDRDDEGVLLQIFTKPVGDRPTFFLELIQRIGCMEKDEKGQEYQKGGCGGFGKGNFGQLFKSIEDYEKSLEAKQAAAAATAQGS | 3.25 | 3.25 | 0.242 | 0.242
0.157 | 0.157 | 0.607 | 0.259 | P056028-G-10 (protein, Zea mays variant form created by artificial means.) MGPTPTATAAGAAVAAASAAEQAAFRLVGHRNFVRFNPRSDRFQTLAFHHVELWCADAASAAGRFSFALGVPLAARSDLSTGNSAHASLLLRSGSLSLLFTAPYAHGADAATAALPSFSAAAARRFAADHGLAVRAVALRVADAEDAFRASVAAGARKAFGPVDLGRGFRLAEVELYGDVVLRYVSYPDGAAGEPFLPGFEGVASPGAADYGLSRFDHIVGNVPELAPAAAYMAGFTGFHEFAEFTTEDVGTTESGLNSMALANNSENVLLPLNEPVHGTKRRSQIQTFLDHHGGPGVQHIALASDDVLRTLREMRARSAMGGFEFPPPPLSDYYDGVRRCAGDVLTEAQINECQELGVMVDRDDEGVLLQIFTKPVGDRPTFFLEIIQRIGCMEKDEKGQEYQKGGCGGFGKGNFQQLFKSIEDYEKSLEAKQAAAAATAQGS | 4.61 | 4.61 | 0.488 | 0.488
0.266 | 0.266 | 0.705 | 0.377 | P056028-F-08 (protein, Zea mays variant form created by artificial means.) MGPTPTATAAGAAVAAASAAEQAAFRLVGHRNFVRFNPRSDRFQTLAFHHVELWCADAASAAGRFSFALGVPLAARSDLSTGNSAHASLLLRSGSLSLLFTAPYAHGADAATAALPSFSAAAARRFAADHGLAVRAVALRVADAEDAFRASVAAGARKAFGPVDLGRGFRLAEVELYGDVVLRYVSYPDGAAGEPFLPGFEGVASPGAADLGLSRFDHIVGNVPELAPAAAYMAGFTGFHEFAEFTTEDVGTTESGLNSMALANNSENVLLPLNEPVHGTKRRSQIQTFLDHHGGPGVQHIALASDDVLRTLREMRARSAMGGFEFLPPPLSDYYDGVRKCAGDVLTEAQINECQELGVMVDRDDEGVLLQIFTKPVGDRPTFFLEIIQRIGCMEKDEKGQEYQKGGCGGFGKGNFGQLFKSIEDYEKSLEAKQAAAAATAQGS | 3.23 | 3.23 | 0.202 | 0.202
0.236 | 0.236 | 0.735 | 0.322 | P056028-F-07 (protein, Zea mays variant form created by artificial means.) MGPTPTATAAGAAVAAASAAEQAAFRLVGHRNFVRFNPRSDRFQTLAFHHVELWCADAASAAGRFSFALGVPLAARSDLSTGNSAHASLLLRSGSLSLLFTAPYAHGADAATAALPSFSAAAARRFAADHGLAVRAVALRVADAEDAFRASVAAGARPAFGPVDLGRGFRLAEVELYGDVVLRYVSYPDGGAGEPFLPGFEGVASPGAADYGLSRFDHIVGNVPELAPAAAYMAGFTGFHEFAEFTTEDVGTTESGLNSMALANNSENVLLPLNEPVHGTKRRSQIQTFLDHHGGPGVQHIALASDDVLRTLREMRARSAMGGFEFLPPPLSDYYDGVRKCAGDVLTEAQINECQELGVMVDRDDEGVLLQIFTKPVGDRPTFFLEIIQRIGCMEKDEKGQEYQKGGCGGFGKGNFGQLFKSIEDYEKSLEAKHAAAAATAQGS | 5.04 | 5.04 | 0.357 | 0.357
0.252 | 0.252 | 0.700 | 0.360 | P056028-F-09 (protein, Zea mays variant form created by artificial means.) MGPTPTATAAGAAVAAASAAEQAAFRLVGHRNFVRFNPRSDRFQTLAFHHVELWCADAASAAGRFSFALGVPLAARSDLSTGNSAHASLLLRSGSLSLLFTAPYAHGADAATAALPSFSAAAARRFAADHGLAVRAVALRVADAEDAFRASVAAGARPAFGPVDLGRGFRLAEVELYGDVVLRYVSYPDGAAGEPFLPGFEGVASQGAADYGLSRFDHIVGNVPELAPAAAYMAGFTGFHEFAEFTTEDVGTTESGLNSMALANNSENVLLPLNEPVHGTKRRSQIQTFLDHHGGPGVQHIALASDDVLRTLREMRARSAMGGFEFLPPPLSDYYDGVRRCAGDVLTEAQINECQELGVMVDRDDEGVLLQIFTKPVGDRPTFFLELIQRIGCMEKDEKGQEYQKGGCGGFGKGNFGQLFKSIEDYEKSLEAKQAAAAATAQGS | 4.30 | 4.30 | 0.285 | 0.285
0.231 | 0.231 | 0.761 | 0.304 | P056028-G-02 (protein, Zea mays variant form created by artificial means.) MGPTPTATAAGAAVAAASAAEQAAFRLVGHRNFVRFNPRSDRFQTLAFHHVELWCADAASAAGRFSFALGVPLAARSDLSTGNSAHASLLLRSGSLSLLFTAPYAHGADAATAALPSFSAAAARRFAADHGLAVRAVALRVADAEDAFRASVAAGARPAFGPVDLGRGFRLAEVELYGDVVLRYVSYPDGAAGEPFLPGFEGVASPGAADYGLSRFDHIVGNVPELAPAAAYVAGFTGFHEFAEFTTEDVGTTESGLNSMALANNSENVLLPLNEPVHGTKRRSQIQTFLDHHGGPGVQHIALASDDVLRTLREMRARSAMGGFEFLPPPLSDYYDGVRRCAGDVLTEAQINECQELGVMVDRDDEGVLLQIFTKPVGDRPTFFLEIIQRIGCMEKDEKGQEYQKGGCGGFGKGNFGQLFKSIEDYEKSLEAKQAAAAATAQGS | 5.30 | 5.30 | 0.383 | 0.383
